Reference: the supplement of paper PMC7877785
± gives the uncertainty stated by the source.

Assay: self-splicing fitness, log relative to wild type (ln ratio); higher = more splicing; Tetrahymena group I intron in knt gene, E. coli kanamycin selection, DiMSum; sequences stand for … in CUCUCU…GGAGGGAAAAGUUAUCAGGCAUGCACCUGGUAGCUAGUCUUUAAACCAAUAGAUUGCAUCGGUUUAAAAGGCAAGACCGUCAAAUUGCGGGAAAGGGGUCAACAGCCGUUCAGUACCAAGUCUCAGGGGAAACUUUGAGAUGGCCUUGCAAAGGGUAUGGUAAUAAGCUGACGGACAUGGUCCUAACCACGCAGCCAAGUCCUAAGUCAACAGAUCUUCUGUUGAUAUGGAUGCAGUUCACAGACUAAAUGUCGGUCGGGGAAGAUGUAUUCUUCUCAUAAGAUAUAGUCGGACCUCUCCUUAAUGGGAGCUAGCGGAUGAAGUGAUGCAACACUGGAGCCGCUGGGAACUAAUUUGUAUGCGAAAGUAUAUUGAUUAGUUUUGGAGUACUCGUGGUCG
Procedure, shortened: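 The eight P1ex-region nucleotides of an intron in the knt kanamycin-resistance gene on pET-22b(+) were all randomised and the library put into E. coli BL21(DE3). Six replicate transformations were grown overnight at 37°C or 30°C on LB agar with or without 25 μg/mL kanamycin, together with 100 μg/mL carbenicillin, 50 μM IPTG and 0.2% rhamnose. Colonies were pooled and amplicon-sequenced on an Illumina HiSeq 2500. Fitness from DiMSum is the error-weighted combination of wild-type-normalised replicate fold changes, kanamycin over none.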

Sequence	self-splicing fitness (ln) (30 °C)	self-splicing fitness (ln) (37 °C)
CACAAGCAAUAUUACGCUGU	-3.78 ± 0.17	-2.57 ± 0.18
CACAAGCAAUAUUACGCUUA	-2.27 ± 0.13	-2.15 ± 0.13
CACAAGCAAUAUUACGGACG	-0.358 ± 0.046	0.611 ± 0.072
CACAAGCAAUAUUACGGAGC	-3.77 ± 0.29	-3.25 ± 0.24
CACAAGCAAUAUUACGGAUC	-4.63 ± 0.39	-2.09 ± 0.13
CACAAGCAAUAUUACGGCAU	-3.26 ± 0.12	-2.33 ± 0.12
CACAAGCAAUAUUACGGCCU	-4.49 ± 0.24	-2.74 ± 0.24
CACAAGCAAUAUUACGGGCG	-0.358 ± 0.06	0.319 ± 0.07
CACAAGCAAUAUUACGGUAA	-2.26 ± 0.096	-2.21 ± 0.12
CACAAGCAAUAUUACGGUAC	-4.11 ± 0.22	-2.03 ± 0.17
CACAAGCAAUAUUACGGUUU	-3.34 ± 0.14	-2.59 ± 0.19
CACAAGCAAUAUUACGUAGU	-3.4 ± 0.12	-1.81 ± 0.11
CACAAGCAAUAUUACGUCCA	-3.23 ± 0.2	-1.59 ± 0.12
CACAAGCAAUAUUACGUCCG	-0.428 ± 0.094	0.252 ± 0.12
CACAAGCAAUAUUACGUCGA	-2.62 ± 0.078	-0.984 ± 0.073
CACAAGCAAUAUUACGUCUU	-3.88 ± 0.17	-2.25 ± 0.14
CACAAGCAAUAUUACGUGGA	-2.95 ± 0.11	-2.81 ± 0.13
CACCAGCAAUAUUACGAACG	0.223 ± 0.063	0.344 ± 0.078
CACCAGCAAUAUUACGACCA	-1.94 ± 0.13	-0.0102 ± 0.16
CACCAGCAAUAUUACGAGAU	-3.87 ± 0.17	-2.42 ± 0.16
CACCAGCAAUAUUACGAUUU	-3.36 ± 0.15	-1.52 ± 0.13
CACCAGCAAUAUUACGCAAU	-4.25 ± 0.18	-4.19 ± 0.16
CACCAGCAAUAUUACGCAUU	-2.6 ± 0.086	-1.86 ± 0.1
CACCAGCAAUAUUACGCCCA	-1.72 ± 0.099	-1.71 ± 0.13

Sequence	self-splicing fitness (ln) (30 °C)	self-splicing fitness (ln) (37 °C)
CACCAGCAAUAUUACGCGGU	-3.67 ± 0.12	-3.31 ± 0.15
CACCAGCAAUAUUACGCGUG	-3.74 ± 0.16	-2.44 ± 0.13
CACCAGCAAUAUUACGCUAA	-2.78 ± 0.13	-2.33 ± 0.16
CACCAGCAAUAUUACGCUCG	-0.247 ± 0.062	0.219 ± 0.087
CACCAGCAAUAUUACGGAAU	-2.97 ± 0.14	-2.18 ± 0.16
CACCAGCAAUAUUACGGAUA	-1.42 ± 0.065	-1.18 ± 0.069
CACCAGCAAUAUUACGGGGC	-4.45 ± 0.22	-1.29 ± 0.14
CACCAGCAAUAUUACGUAUU	-3.78 ± 0.15	-2.7 ± 0.16
CACCAGCAAUAUUACGUCCA	-3.43 ± 0.26	-2.26 ± 0.2
CACCAGCAAUAUUACGUUAA	-3.35 ± 0.095	-2.37 ± 0.11
CACCAGCAAUAUUACGUUCG	-0.281 ± 0.049	-0.196 ± 0.062
CACCAGCAAUAUUACGUUUA	-3.33 ± 0.16	-2.47 ± 0.13
CACGAGCAAUAUUACGACUG	-2.46 ± 0.1	-0.773 ± 0.12
CACGAGCAAUAUUACGAGGC	-3.19 ± 0.26	-1.81 ± 0.24
CACGAGCAAUAUUACGAGUA	-2.53 ± 0.16	-2.11 ± 0.22
CACGAGCAAUAUUACGAUUC	-3.44 ± 0.15	-2.49 ± 0.17
CACGAGCAAUAUUACGCAAA	-3.96 ± 0.33	-2.08 ± 0.19
CACGAGCAAUAUUACGCAAC	-1.88 ± 0.44	-2.56 ± 0.36
CACGAGCAAUAUUACGCUAC		-2.5 ± 0.37
CACGAGCAAUAUUACGGACA	-3.03 ± 0.22	-2.9 ± 0.22
CACGAGCAAUAUUACGGACG	-1.34 ± 0.075	-0.15 ± 0.1
CACGAGCAAUAUUACGGCAA	-3.69 ± 0.27	-2.09 ± 0.14
CACGAGCAAUAUUACGGGGG	-3.04 ± 0.19	-2.52 ± 0.25
CACGAGCAAUAUUACGGGUG	-3.79 ± 0.21	-2.25 ± 0.18

Sequence	self-splicing fitness (ln) (30 °C)	self-splicing fitness (ln) (37 °C)
CACGAGCAAUAUUACGGUGC	-3.91 ± 0.37	-2.76 ± 0.28
CACGAGCAAUAUUACGUCAG	-3.42 ± 0.13	-2.32 ± 0.11
CACGAGCAAUAUUACGUCGG	-2.27 ± 0.11	-2.16 ± 0.17
CACGAGCAAUAUUACGUCUC	-2.49 ± 0.27	-3.63 ± 0.34
CACGAGCAAUAUUACGUGAG	-4.08 ± 0.19	-2.38 ± 0.19
CACGAGCAAUAUUACGUGGU	-3.86 ± 0.24	-2.25 ± 0.18
CACGAGCAAUAUUACGUGUA	-3.1 ± 0.21	-2.88 ± 0.2
CACUAGCAAUAUUACGAGUC	-2.82 ± 0.21	-2.01 ± 0.19
CACUAGCAAUAUUACGCACA	-0.953 ± 0.094	-0.695 ± 0.08
CACUAGCAAUAUUACGCAGA	-2.54 ± 0.19	-2.16 ± 0.19
CACUAGCAAUAUUACGCAGU	-4.15 ± 0.42	-2.78 ± 0.33
CACUAGCAAUAUUACGCCGG	-0.975 ± 0.073	-0.471 ± 0.1
CACUAGCAAUAUUACGCGCA	-2.52 ± 0.16	-1.85 ± 0.2
CACUAGCAAUAUUACGCUCA	-2.66 ± 0.21	-2.08 ± 0.17
CACUAGCAAUAUUACGCUCU	-2.46 ± 0.18	-0.207 ± 0.13
CACUAGCAAUAUUACGGCAA	-4.1 ± 0.42	-2.08 ± 0.18
CACUAGCAAUAUUACGGCCC		-1.71 ± 0.46
CACUAGCAAUAUUACGGGAA	-2.2 ± 0.18	-2.29 ± 0.17
CACUAGCAAUAUUACGGGUG	-4.03 ± 0.36	-2.57 ± 0.21
CACUAGCAAUAUUACGGUGA	-3.47 ± 0.21	-2.22 ± 0.18
CACUAGCAAUAUUACGGUGC	-2.24 ± 0.22	-2.43 ± 0.35
CACUAGCAAUAUUACGUCCU	-2.36 ± 0.13	-1.24 ± 0.18
CACUAGCAAUAUUACGUCUC	-4.18 ± 0.26	-2.43 ± 0.2
CACUAGCAAUAUUACGUGUC	-3.71 ± 0.14	-2.93 ± 0.15

Sequence	self-splicing fitness (ln) (30 °C)	self-splicing fitness (ln) (37 °C)
CACUAGCAAUAUUACGUUUC	-4.29 ± 0.3	-1.98 ± 0.29
CAGAAGCAAUAUUACGAAGU	-3.9 ± 0.37	-2.48 ± 0.26
CAGAAGCAAUAUUACGACAU	-3.128 ± 0.02	-1.87 ± 0.034
CAGAAGCAAUAUUACGACCG	0.169 ± 0.12	0.634 ± 0.15
CAGAAGCAAUAUUACGACUG	-3.23 ± 0.21	-2.48 ± 0.19
CAGAAGCAAUAUUACGAUGC	-4.82 ± 0.42	-2.92 ± 0.35
CAGAAGCAAUAUUACGAUUC		-1.98 ± 0.18
CAGAAGCAAUAUUACGCCAG	-0.586 ± 0.072	-0.605 ± 0.12
CAGAAGCAAUAUUACGGCAA	-2.48 ± 0.22	-1.25 ± 0.19
CAGAAGCAAUAUUACGGUAU	-3.21 ± 0.19	-2.47 ± 0.22
CAGAAGCAAUAUUACGGUUG	-1.2 ± 0.069	-1.08 ± 0.098
CAGAAGCAAUAUUACGUAAG	-0.12 ± 0.057	0.772 ± 0.074
CAGAAGCAAUAUUACGUAUA	-3.84 ± 0.21	-1.84 ± 0.14
CAGAAGCAAUAUUACGUCAA	-2.46 ± 0.27	-2.24 ± 0.26
CAGAAGCAAUAUUACGUGAA	-3.07 ± 0.13	-1.16 ± 0.12
CAGAAGCAAUAUUACGUGGG	-3.34 ± 0.17	-2.6 ± 0.16
CAGAAGCAAUAUUACGUGUG	-3.01 ± 0.074	-2.19 ± 0.082
CAGAAGCAAUAUUACGUUCA	-2.03 ± 0.14	-0.728 ± 0.1
CAGAAGCAAUAUUACGUUGA	-2.84 ± 0.2	-1.53 ± 0.15
CAGAAGCAAUAUUACGUUGU	-3.38 ± 0.13	-2.81 ± 0.15
CAGCAGCAAUAUUACGAAGA	-2.72 ± 0.31	-2.6 ± 0.38
CAGCAGCAAUAUUACGAAUC	-2.38 ± 0.27	-2.33 ± 0.4
CAGCAGCAAUAUUACGACUU	-0.431 ± 0.068	0.69 ± 0.083
CAGCAGCAAUAUUACGAGCG	-0.131 ± 0.053	-0.0622 ± 0.066
